Tests used:
human PD-1-His = biological target: T1, human PD-1-His (human, UniProt Q15116 25-167, limits assumed); assay: Octet BLI; antibody captured on anti-human Fc (AHC) biosensors, dipped into PD-1-His
T1 construct: not shown: His tag

PD-1-His = biological target: T2, PD-1-His (UniProt Q15116 25-167, limits assumed); assay: Octet affinity screen; bivalent IgG1 format
T2 construct: Captured on HIS1K biosensors; not shown: His tag
Source text: We engineered affinity optimized variants of mAb C. A library of variants was constructed by standard mutagenesis to introduce point mutations into the variable heavy or variable light regions of XENP28536. Illustrative sequences are depicted in FIG. 70A-FIG. 70I (variable domain sequences).

T2 sequence (Q15116 25-167 limits assumed): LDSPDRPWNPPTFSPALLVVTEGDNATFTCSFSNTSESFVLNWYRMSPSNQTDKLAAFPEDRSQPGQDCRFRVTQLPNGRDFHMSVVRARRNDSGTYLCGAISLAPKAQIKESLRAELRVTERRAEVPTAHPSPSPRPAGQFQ
T1 sequence (Q15116 25-167 limits assumed): as above

Row | Binder | binding result (human PD-1-His) | fold improved affinity over WT (mAb C[PD-1]_H1L1) (PD-1-His)
1 | XENP28536 (antibody, human IgG1, kappa, V domains shown, Format is bivalent human IgG1 with E233P/L234V/L235A/G236del/S267K; also called mAb C; mAb C[PD-1]_H1L1) VH: EVQLVESGGGLVQPGGSLRLSCAASGFTFSSFGMHWVRQAPGKGLEWVSYISSGSSIIYYADSVKGRFTISRDNAKNSLYLQMNSLRAEDTAVYYCARGGRLVWSPDYWGQGTLVTVSS VL: DIVMTQSPDSLAVSLGERATINCKSSQSLLNSGNQKNYLTWYQQKPGQPPKLLIYWASTRESGVPDRFTGSGSGTDFTLTISSLQAEDVAVYYCQNDYSYPFTFGSGTKLEIKR | binds | –
2 | mAb C[PD-1]_H1_L1.1 (antibody, IgG1, V domains shown) VH: EVQLVESGGGLVQPGGSLRLSCAASGFTFSSFGMHWVRQAPGKGLEWVSYISSGSSIIYYADSVKGRFTISRDNAKNSLYLQMNSLRAEDTAVYYCARGGRLVWSPDYWGQGTLVTVSS VL: DIVMTQSPDSLAVSLGERATINCKSSQSLLHSGNQKNYLTWYQQKPGQPPKLLIYWASTRESGVPDRFTGSGSGTDFTLTISSLQAEDVAVYYCQNDYSYPFTFGSGTKLEIK | – | > 2 fold
3 | mab_C[PD-1]_H1_L1.3 (antibody, IgG1, V domains shown) VH: EVQLVESGGGLVQPGGSLRLSCAASGFTFSSFGMHWVRQAPGKGLEWVSYISSGSSIIYYADSVKGRFTISRDNAKNSLYLQMNSLRAEDTAVYYCARGGRLVWSPDYWGQGTLVTVSS VL: DIVMTQSPDSLAVSLGERATINCKSSQSLLSSGNQKNYLTWYQQKPGQPPKLLIYWASTRESGVPDRFTGSGSGTDFTLTISSLQAEDVAVYYCQNDYSYPFTFGSGTKLEIK | – | > 2 fold
